According to patent US20180236071A1 (ACTICOR BIOTECH, published 2018):

T1: Soluble GPVI-Fc (human, UniProt Q9HCN6 21-269)
T1 construct: also called soluble human GPVI
T1 chain: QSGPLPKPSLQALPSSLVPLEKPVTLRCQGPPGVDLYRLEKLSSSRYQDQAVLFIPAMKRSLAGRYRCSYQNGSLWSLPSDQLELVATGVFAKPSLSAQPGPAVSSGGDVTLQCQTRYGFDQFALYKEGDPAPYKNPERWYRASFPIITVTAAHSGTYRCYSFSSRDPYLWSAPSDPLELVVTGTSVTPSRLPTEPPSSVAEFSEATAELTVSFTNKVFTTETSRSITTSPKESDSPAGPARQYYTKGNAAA

T2: murine GPVI (mouse, UniProt P0C191 22-265, limits assumed)
T2 construct: also called mouse GPVI
T2 sequence (looked up): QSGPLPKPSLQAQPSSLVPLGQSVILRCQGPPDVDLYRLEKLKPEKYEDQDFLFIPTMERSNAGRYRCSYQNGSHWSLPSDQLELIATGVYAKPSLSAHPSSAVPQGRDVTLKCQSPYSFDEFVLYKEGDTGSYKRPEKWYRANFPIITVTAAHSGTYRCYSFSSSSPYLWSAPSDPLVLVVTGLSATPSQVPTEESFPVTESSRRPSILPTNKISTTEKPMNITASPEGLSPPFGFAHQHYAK

T3: human Glycoprotein VI (GPVI) on platelets (human, UniProt Q9HCN6 21-339)
T3 chain: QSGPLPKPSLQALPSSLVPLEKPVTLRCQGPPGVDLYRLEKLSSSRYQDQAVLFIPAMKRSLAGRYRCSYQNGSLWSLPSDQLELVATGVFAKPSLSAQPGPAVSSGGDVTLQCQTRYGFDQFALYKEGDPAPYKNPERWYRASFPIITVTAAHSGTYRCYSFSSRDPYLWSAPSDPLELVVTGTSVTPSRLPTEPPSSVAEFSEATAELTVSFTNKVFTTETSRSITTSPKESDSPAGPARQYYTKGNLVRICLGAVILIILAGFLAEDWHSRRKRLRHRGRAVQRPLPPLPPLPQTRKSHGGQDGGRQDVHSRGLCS


Tests used:
Soluble GPVI-Fc = target: T1, Soluble GPVI-Fc; assay: SPR, BIAcore 2000, GPVI-Fc immobilised, Fab in flow, PBS pH 7.4
Protocol: Soluble GPVI-Fc (produced as described in Example 2) was immobilized in acetate buffer 10 mM pH 6 at a dose ranging from 960 to 1071 RU (corresponding about 6.4 to 7.15 fmol/mm²) onto a Carboxy-Methyl Dextran CMS sensor chip using the amine coupling method (Wizard procedure). The protein is then passed over the immobilized GPVI-Fc in PBS pH 7.4 (10 mM phosphate, 138 mM NaCl, 2.7 mM KCl, pH 7.42 at 25.4° C.) at a flow rate of 20 μL/min at 25° C. Kinetic constants (KA, KD, kₒₙ, koff) and affinity are determined using BIAevaluation version 3.0 software, by fitting data to binding model. PBS pH 7.4 is the running buffer.

murine GPVI = target: T2, murine GPVI; assay: not described
[1] = target: T3, human Glycoprotein VI (GPVI) on …; assay: cell-based or functional assay

| Ka (Soluble GPVI-Fc) | Kd (Soluble GPVI-Fc) | koff (Soluble GPVI-Fc) | kon (Soluble GPVI-Fc) | binding result (murine GPVI) | mean IC50, intensity of collagen-induced platelet aggregation [1] | mean IC50, velocity of collagen-induced platelet aggregation [1] | Binder |
| --- | --- | --- | --- | --- | --- | --- | --- |
| 1.4e+08 M⁻¹ | 7.3 nM | 0.000476 s⁻¹ | 66500 M⁻¹ s⁻¹ |  |  |  | ACT006 antibody (humanized Fab fragment) (Fab, V domains shown) VH: QVQLVQSGAEVKKPGASVKVSCKASGYTFTSYNMHWVRQAPGQGLEWMGGIYPGNGDTSYNQKFQGRVTMTRDTSTSTVYMELSSLRSEDTAVYYCARGTVVGDWYFDVWGQGTLVTVSS VL: DIQMTQSPSSLSASVGDRVTITCSASQSLENSNGNTYLNWYQQKPGKAPKLLIYRVSNRFSGVPSRFSGSGSGTDFTLTISSLQPEDFATYYCLQLTHVPWTFGQGTKVEIKR |
| 2.57e+08 M⁻¹ | 4.1 nM | 0.000232 s⁻¹ | 59700 M⁻¹ s⁻¹ | no binding | 3.2 µg/mL | 2 µg/mL | ACT017 antibody (humanized Fab fragment) (Fab, V domains shown, Coupled to Alexa488 for the flow cytometry assay; also called ACT17; humanized Fab ACT017) VH: QVQLVQSGAEVKKPGASVKVSCKASGYTFTSYNMHWVRQAPGQGLEWMGGIYPGNGDTSYNQKFQGRVTMTRDTSTSTVYMELSSLRSEDTAVYYCARGTVVGDWYFDVWGQGTLVTVSS VL: DIQMTQSPSSLSASVGDRVTITCRSSQSLENSNGNTYLNWYQQKPGKAPKLLIYRVSNRFSGVPSRFSGSGSGTDFTFTISSLQPEDIATYYCLQLTHVPWTFGQGTKVEITR |
